Test results from US20250367269A1, “KYNURENINE AMINOTRANSFERASE AND PRODUCTS THEREOF FOR THE TREATMENT OF ARTHRITIC DISEASES” (Institut National de Recherche Pour L'Agriculture, …, priority 2022, published 2025).

Columns and labels:
[1] = system: collagen-antibody induced arthritis; experiment: collagen-antibody induced arthritis model; format: in vivo, C57BL6J male mice
Procedure: C57BL6J male mice were injected intraperitoneally with a cocktail of arthritogenic anti-type II collagen (2 mg/mouse) at day 0. At day 3, mice received an injection of lipopolysaccharide from bacterial cells walls of E. coli 055: B5. The severity of arthritis was evaluated every other day on each paw with a score from 0 to 4, for a maximal score of 16 by animal (0=normal joint, 1=moderate redness and slight swelling or swelling of one or two digits, 2=moderate redness and moderate paw swelling or swelling more than three digits, 3=redness and swelling from tarsal joints to metatarsal joints, 4=severe redness and severe swelling of the entire paw). Hindpaw swelling was measured at the same time by plethysmography. Paw volume determined prior to disease induction was used as the baseline. The development of arthritis was analyzed by histological assessment. Hindpaws were dissected then fixed in 4% formalin (Labonord). Hindpaws were further decalcified in 10% EDTA for 1 month and embedded in paraffin blocks. Five μm-thick tissue sections were cut and two stainings were performed, hematoxylin, eosin and toluidine blue. Histological examination was carried out blindly by three independent observers. Synovium from ankle joint was graded on a scale of 0 to 3 (with 0=normal and 3=major changes) for synovial hyperplasia (width of lining layer) and tissue cell infiltration. […]

[2] = AADAT activity test (transformation of KYNU into KYNA and XANA); format: biochemical; conditions: 15 min in the presence of KYNU (1000 μM), FIG. 3F
Procedure: The activity test is based on the disappearance of kynurenine and 3-hydroxykynurenin which are substrates of AADAT. A reaction mixture (50 μL final volume) containing 10 mM L-kynurenine or 3-hydroxykynurenin, 2 mM α-oxoglutarate, 40 μM PLP (pyridoxal 5′-phosphate) and 0 or 1 μL of the purified protein sample prepared in buffer 100 mM potassium phosphate (pH 7.4). Then, the mixture was incubated at 37° C. for 15 min, and the reaction was stopped by the addition of an equal volume of 30% acetic acid. The supernatant of the reaction mixture, obtained by centrifugation at 3000 g for 10 min at 4° C., was mixed equally with Ehrlich's solution and incubated 15 min at room temperature to have a colorimetric reaction. In parallel, a standard range of kynurenine or 3-hydroxykynurenin from 0 μM to 1000 μM was made under the same conditions. The amount of kynurenine or 3-hydroxykynurenin present in the sample was measured with a spectrophotometer at an OD of 492 nm and calculated using the standard range (FIG. 3E). A verification of the production of KYNA and XANA in vitro via the action of our enzyme during 15 min in the presence of KYNU (1000 μM) was carried out (FIG. 3F).

B1: AADAT: Recombinant murine alpha-aminoadipate aminotransferase (SEQ ID NO:13) produced in E. coli and purified by affinity chromatography (protein, listed as Mus musculus)
chain: MNYSRFLTATSLARKPSPIRTTADILSKAPKTLISLAPGSPNPSMFPFKSAAFTVENGSTIRFEDDLIKRALQYSPSYGIPELLSWLKQFQVKLHNPPTVNYPPNQGQMDLCITSGCQDGLCKAFEMLINPGDTILVNEPLFPGTLYAMKPLGCNIINVPSDEHGIIPEGLKKILSQWKPEDSKDPTKKTPKFLYTVPNGNNPTGNSLTGDRKKEIYELARKYDFLIIEDDPYYFLQFSKPWEPTFLSMDVDGRVIRADTFSKTVSSGLRVGFMTGPKTLIQNIVLHTQVSSVHACTLSQLMILQLLHQWGEEGFLAHIDRTIDFYKNQRDSILAAADKWLRGLAEWHVPKAGMFLWIKVKGISDTKQLIEEKAIEREVLLVPGNGFFIDGSAPTSFFRASFSLATPAQMDTAFQRLAQLIKESL
arthritis severity ([1]; daily i.p. recombinant AADAT ~50 μg/d vs vehicle, confirmed by oedema swelling measure and histology (FIG. 4)): drastically reduced
maximal clinical score mean ([1]; score 0 to 4 per paw, maximal 16 by animal, daily i.p. recombinant AADAT ~50 μg/d, 2 experiments, 8 mice per group, vehicle 6.9): 2.6
transformation of KYNU into KYNA and XANA in vitro [2]: dose effect can be observed
